Assay [1] concerns the target AβO in the low molecular weight (LMW) fraction of pooled soluble human AD brain extract (~8 kDa to ~70 kDa) (human) (UniProt P05067). As to the kind of experiment: SPR; BRU on LMW fraction divided by BRU on HMW fraction; Study 1. (In SPR one partner is held on a chip, and binding of the other changes the refractive index at the surface.)
Assay [2] shares this target. Description: SPR; BRU on LMW fraction divided by BRU on HMW fraction; Study 2.
The target is the same in assay [3]. As to the kind of experiment: SPR; BRU on LMW fraction divided by BRU on HMW fraction; Study 3.
In assay [4] the target is Aβ aggregates in the high molecular weight (HMW) fraction of pooled soluble human AD brain extract (>70 kDa to ~700 kDa) (human) (UniProt P05067). Description: SPR, immobilized antibody, brain extract fraction at 100 µg/ml injected; Study 1.
Assay [5] addresses AβO in the low molecular weight (LMW) fraction of pooled soluble human AD brain extract (~8 kDa to ~70 kDa) (human) (UniProt P05067). Described as above.
The target in assay [6] is Aβ aggregates in the high molecular weight (HMW) fraction of pooled soluble human AD brain extract (>70 kDa to ~700 kDa) (human) (UniProt P05067). Description: SPR, immobilized antibody, brain extract fraction at 100 µg/ml injected; Study 2.
The target in assay [7] is AβO in the low molecular weight (LMW) fraction of pooled soluble human AD brain extract (~8 kDa to ~70 kDa) (human) (UniProt P05067). The assay is described as above.
The target of assay [8] is Aβ aggregates in the high molecular weight (HMW) fraction of pooled soluble human AD brain extract (>70 kDa to ~700 kDa) (human) (UniProt P05067). As to the kind of experiment: SPR, immobilized antibody, brain extract fraction at 100 µg/ml injected; Study 3.
Assay [9] concerns the target AβO in the low molecular weight (LMW) fraction of pooled soluble human AD brain extract (~8 kDa to ~70 kDa) (human) (UniProt P05067). Described as above.

The text below walks through data of patent US20230141177A1.

B1: parental antibody, PMN310 humanized antibody variant VH2/Vk5 (human IgG4 S241P / kappa) (antibody, V domains shown)
VH: QVQLVQSGAEVKKPGASVKMSCKASGYSFTSYWINWVKQRPGQGLEWIGDVHPGRGVSTYNAKFKSRATLTLDTSISTAYMELSSLRSEDTAVYYCSRSHGNTYWFFDVWGQGTTVTVSS
VL: DVLMTQSPLSLPVTLGQPASISCRSSQSIVHSNGNTYLEWYQQRPGQSPRLLIYKVSNRFSGVPDRFSGSGSGTDFTLKISRVEAEDVGVYYCFQGSHVPFTFGQGTKLEIKR
With B1, the LMW/HMW ratio in assay [1] stood at 1; in assay [2] it was 1.31; in [3] it was 1.52. For the same molecule, the Binding to HMW (BRU) was 27 BRU in assay [4], 13.5 BRU in assay [6] and 5 BRU in [8]. The Binding to LMW (BRU) in assay [5] worked out at 27 BRU; in assay [7] it was 17.7 BRU; in [9] it was 7.6 BRU.

B2: Clone 5 (affinity matured VH with parental Vk, human IgG4 S241P / kappa) (antibody, V domains shown)
VH: QVQLVQSGAEVKKPGASVKMSCKASGYSFTSYWINWVKQRPGQGLEWIGDVHPGRGVSTYNAKFKSRATLTLDTSISTAYMELSSLRSEDTAVYYCARGALSPYWFFDVWGQGTTVTVSS
VL: DVLMTQSPLSLPVTLGQPASISCRSSQSIVHSNGNTYLEWYQQRPGQSPRLLIYKVSNRFSGVPDRFSGSGSGTDFTLKISRVEAEDVGVYYCFQGSHVPFTFGQGTKLEIKR
Consider B2, for which the LMW/HMW ratio amounted to 1 in [1], 1.43 in assay [2] and 1.2 in assay [3]. The figures for the Binding to HMW (BRU) in assay [4], in assay [6] and in assay [8] were 15 BRU, 6.57 BRU and 7.88 BRU, respectively. The Binding to LMW (BRU) in assay [5] came to 15 BRU; in assay [7], 9.42 BRU; in assay [9] it was 9.45 BRU.

B3: Clone 14 (affinity matured VH with parental Vk, human IgG4 S241P / kappa) (antibody, V domains shown)
VH: QVQLVQSGAEVKKPGASVKMSCKASGYSFTSYWINWVKQRPGQGLEWIGDVHPGRGVSTYNAKFKSRATLTLDTSISTAYMELSSLRSEDTAVYYCAKSDASGYWFFDVWGQGTTVTVSS
VL: DVLMTQSPLSLPVTLGQPASISCRSSQSIVHSNGNTYLEWYQQRPGQSPRLLIYKVSNRFSGVPDRFSGSGSGTDFTLKISRVEAEDVGVYYCFQGSHVPFTFGQGTKLEIKR
For the molecule B3, the values for the LMW/HMW ratio in assay [1], in assay [2] and in assay [3] were 1.1, 1.47 and 1.45, respectively. Further, the Binding to HMW (BRU) in [4] was found to be 16 BRU; in assay [6], 7.55 BRU; in assay [8], 4.38 BRU. Also, the values for the Binding to LMW (BRU) in assay [5], in assay [7] and in assay [9] were 18 BRU, 11.1 BRU and 6.34 BRU, respectively.

B4: Clone 4 (affinity matured VH with parental Vk, human IgG4 S241P / kappa) (antibody, V domains shown)
VH: QVQLVQSGAEVKKPGASVKMSCKASGYSFTSYWINWVKQRPGQGLEWIGDVHPGRGVSTYNAKFKSRATLTLDTSISTAYMELSSLRSEDTAVYYCARVSPTGYWFFDVWGQGTTVTVSS
VL: DVLMTQSPLSLPVTLGQPASISCRSSQSIVHSNGNTYLEWYQQRPGQSPRLLIYKVSNRFSGVPDRFSGSGSGTDFTLKISRVEAEDVGVYYCFQGSHVPFTFGQGTKLEIKR
In the case of B4, the LMW/HMW ratio is 1.32 in assay [1], 1.55 in assay [2] and 1.54 in assay [3]. Further, the Binding to HMW (BRU) amounted to 21 BRU in [4], 11.2 BRU in assay [6] and 6.77 BRU in assay [8]. Moreover, the Binding to LMW (BRU) in [5] stood at 28 BRU; in [7], 17.3 BRU; in [9], 10.1 BRU.
